Data published in patent US20150344570A1 (published 2015).

T1: FcγRIIb extracellular domain with C-terminal His tag (human, UniProt P31994 43-217)
T1 construct: extracellular domain; also called FcgRIIb; 2b
T1 sequence (looked up): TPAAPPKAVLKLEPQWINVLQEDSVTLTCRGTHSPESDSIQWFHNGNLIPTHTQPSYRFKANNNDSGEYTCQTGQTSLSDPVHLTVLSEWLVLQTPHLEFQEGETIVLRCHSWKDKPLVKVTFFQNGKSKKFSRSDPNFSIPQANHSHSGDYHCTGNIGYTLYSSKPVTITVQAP


Biological target: T1, FcγRIIb extracellular domain with …
Assay: SPR (Biacore), relative binding

Row | Binder | He/Con_2b
1 | GpH7-A5/GpH7-B3 variant P238_10E/GpL16-k0 (antibody, human IgG1, kappa, also called He Ab P238_10E) heavy 1: not shown heavy 2: not shown light: DIVMTQSPLSLPVTPGEPASISCQASESLVHSNRNTYLHWYLQKPGQSPQLLIYKVSNRFSGVPDRFSGSGSGTDFTLKISRVEAEDVGVYYCSQNTHVPPTFGQGTKVEIERTVAAPSVFIFPPSDEQLKSGTASVVCLLNNFYPREAKVQWKVDNALQSGNSQESVTEQDSKDSTYSLSSTLTLSKADYEKHKVYACEVTHQGLSSPVTKSFNRGEC | 232 % of HeCon Ab GpH7-A5/GpH7-B3/GpL16-k0
2 | GpH7-A5/GpH7-B3 variant P238_09D/GpL16-k0 (antibody, human IgG1, kappa, also called He Ab P238_09D) heavy 1: not shown heavy 2: not shown light: DIVMTQSPLSLPVTPGEPASISCQASESLVHSNRNTYLHWYLQKPGQSPQLLIYKVSNRFSGVPDRFSGSGSGTDFTLKISRVEAEDVGVYYCSQNTHVPPTFGQGTKVEIERTVAAPSVFIFPPSDEQLKSGTASVVCLLNNFYPREAKVQWKVDNALQSGNSQESVTEQDSKDSTYSLSSTLTLSKADYEKHKVYACEVTHQGLSSPVTKSFNRGEC | 221 % of HeCon Ab GpH7-A5/GpH7-B3/GpL16-k0
3 | GpH7-A5/GpH7-B3 variant N325_13S/GpL16-k0 (antibody, human IgG1, kappa, also called He Ab N325_13S) heavy 1: not shown heavy 2: not shown light: DIVMTQSPLSLPVTPGEPASISCQASESLVHSNRNTYLHWYLQKPGQSPQLLIYKVSNRFSGVPDRFSGSGSGTDFTLKISRVEAEDVGVYYCSQNTHVPPTFGQGTKVEIERTVAAPSVFIFPPSDEQLKSGTASVVCLLNNFYPREAKVQWKVDNALQSGNSQESVTEQDSKDSTYSLSSTLTLSKADYEKHKVYACEVTHQGLSSPVTKSFNRGEC | 177 % of HeCon Ab GpH7-A5/GpH7-B3/GpL16-k0
4 | GpH7-A5/GpH7-B3 variant P238_06M/GpL16-k0 (antibody, human IgG1, kappa, also called He Ab P238_06M) heavy 1: not shown heavy 2: not shown light: DIVMTQSPLSLPVTPGEPASISCQASESLVHSNRNTYLHWYLQKPGQSPQLLIYKVSNRFSGVPDRFSGSGSGTDFTLKISRVEAEDVGVYYCSQNTHVPPTFGQGTKVEIERTVAAPSVFIFPPSDEQLKSGTASVVCLLNNFYPREAKVQWKVDNALQSGNSQESVTEQDSKDSTYSLSSTLTLSKADYEKHKVYACEVTHQGLSSPVTKSFNRGEC | 174 % of HeCon Ab GpH7-A5/GpH7-B3/GpL16-k0
5 | GpH7-A5/GpH7-B3 variant P238_15Y/GpL16-k0 (antibody, human IgG1, kappa, also called He Ab P238_15Y) heavy 1: not shown heavy 2: not shown light: DIVMTQSPLSLPVTPGEPASISCQASESLVHSNRNTYLHWYLQKPGQSPQLLIYKVSNRFSGVPDRFSGSGSGTDFTLKISRVEAEDVGVYYCSQNTHVPPTFGQGTKVEIERTVAAPSVFIFPPSDEQLKSGTASVVCLLNNFYPREAKVQWKVDNALQSGNSQESVTEQDSKDSTYSLSSTLTLSKADYEKHKVYACEVTHQGLSSPVTKSFNRGEC | 218 % of HeCon Ab GpH7-A5/GpH7-B3/GpL16-k0
6 | GpH7-A5/GpH7-B3 variant P238_16H/GpL16-k0 (antibody, human IgG1, kappa, also called He Ab P238_16H) heavy 1: not shown heavy 2: not shown light: DIVMTQSPLSLPVTPGEPASISCQASESLVHSNRNTYLHWYLQKPGQSPQLLIYKVSNRFSGVPDRFSGSGSGTDFTLKISRVEAEDVGVYYCSQNTHVPPTFGQGTKVEIERTVAAPSVFIFPPSDEQLKSGTASVVCLLNNFYPREAKVQWKVDNALQSGNSQESVTEQDSKDSTYSLSSTLTLSKADYEKHKVYACEVTHQGLSSPVTKSFNRGEC | 115 % of HeCon Ab GpH7-A5/GpH7-B3/GpL16-k0

Other lines, results leading:

Row | He/Con_2b | Binder
7 | 123 % of HeCon Ab GpH7-A5/GpH7-B3/GpL16-k0 | GpH7-A5/GpH7-B3 variant P238_20W/GpL16-k0 (antibody, human IgG1, kappa, also called He Ab P238_20W) heavy 1: not shown heavy 2: not shown light: DIVMTQSPLSLPVTPGEPASISCQASESLVHSNRNTYLHWYLQKPGQSPQLLIYKVSNRFSGVPDRFSGSGSGTDFTLKISRVEAEDVGVYYCSQNTHVPPTFGQGTKVEIERTVAAPSVFIFPPSDEQLKSGTASVVCLLNNFYPREAKVQWKVDNALQSGNSQESVTEQDSKDSTYSLSSTLTLSKADYEKHKVYACEVTHQGLSSPVTKSFNRGEC
8 | 109 % of HeCon Ab GpH7-A5/GpH7-B3/GpL16-k0 | GpH7-A5/GpH7-B3 variant P271_10E/GpL16-k0 (antibody, human IgG1, kappa, also called He Ab P271_10E) heavy 1: not shown heavy 2: not shown light: DIVMTQSPLSLPVTPGEPASISCQASESLVHSNRNTYLHWYLQKPGQSPQLLIYKVSNRFSGVPDRFSGSGSGTDFTLKISRVEAEDVGVYYCSQNTHVPPTFGQGTKVEIERTVAAPSVFIFPPSDEQLKSGTASVVCLLNNFYPREAKVQWKVDNALQSGNSQESVTEQDSKDSTYSLSSTLTLSKADYEKHKVYACEVTHQGLSSPVTKSFNRGEC
9 | 102 % of HeCon Ab GpH7-A5/GpH7-B3/GpL16-k0 | GpH7-A5/GpH7-B3 variant P331_06M/GpL16-k0 (antibody, human IgG1, kappa, also called He Ab P331_06M) heavy 1: not shown heavy 2: not shown light: DIVMTQSPLSLPVTPGEPASISCQASESLVHSNRNTYLHWYLQKPGQSPQLLIYKVSNRFSGVPDRFSGSGSGTDFTLKISRVEAEDVGVYYCSQNTHVPPTFGQGTKVEIERTVAAPSVFIFPPSDEQLKSGTASVVCLLNNFYPREAKVQWKVDNALQSGNSQESVTEQDSKDSTYSLSSTLTLSKADYEKHKVYACEVTHQGLSSPVTKSFNRGEC
10 | 120 % of HeCon Ab GpH7-A5/GpH7-B3/GpL16-k0 | GpH7-A5/GpH7-B3 variant P271_09D/GpL16-k0 (antibody, human IgG1, kappa, also called He Ab P271_09D) heavy 1: not shown heavy 2: not shown light: DIVMTQSPLSLPVTPGEPASISCQASESLVHSNRNTYLHWYLQKPGQSPQLLIYKVSNRFSGVPDRFSGSGSGTDFTLKISRVEAEDVGVYYCSQNTHVPPTFGQGTKVEIERTVAAPSVFIFPPSDEQLKSGTASVVCLLNNFYPREAKVQWKVDNALQSGNSQESVTEQDSKDSTYSLSSTLTLSKADYEKHKVYACEVTHQGLSSPVTKSFNRGEC
11 | 119 % of HeCon Ab GpH7-A5/GpH7-B3/GpL16-k0 | GpH7-A5/GpH7-B3 variant P331_03V/GpL16-k0 (antibody, human IgG1, kappa, also called He Ab P331_03V) heavy 1: not shown heavy 2: not shown light: DIVMTQSPLSLPVTPGEPASISCQASESLVHSNRNTYLHWYLQKPGQSPQLLIYKVSNRFSGVPDRFSGSGSGTDFTLKISRVEAEDVGVYYCSQNTHVPPTFGQGTKVEIERTVAAPSVFIFPPSDEQLKSGTASVVCLLNNFYPREAKVQWKVDNALQSGNSQESVTEQDSKDSTYSLSSTLTLSKADYEKHKVYACEVTHQGLSSPVTKSFNRGEC
